Residue numbers refer to the chain shown, from its start.
B1: 143G03 (antibody, V domains shown)
VH: QVQLRQSGAELVRPGTSVKMSCKASGYTFTNYYIHWVKQRPGQGLEWIGKIGPGSGSPYYNGMFKDKATLTVDTSSSTAYMQLSSLTSEDSAVYFCARWLLPFDYWGQGTTLTVSS
VL: QIVLSQSPGILSASPGEKVTMTCRASSSVNYMHWYQQKSGSSPKPWIFATSILASGVPPRFSGSGSGTSYSLTISSVEAEDTATYYCQQFSSDPLTFGAGTKLELK
B2: 13G04 (antibody, V domains shown)
VH: QVQLVQSGAEVKKPGASVKVSCKASGYTFIGYYLHWVRQAPGQGLEWMGWINPNSGGTNSAQKFQGRVTMTRDTSISTTYMDLSRLRSDDTAVYYCARGGLERRDAFDIWGQGTLVTVSS
VL: DIQMTQSPSTLSASVGDRVTITCRASQSISNWLAWYQQKPGKAPNLLIYKASSLESGVPSRFSGSGSGTEFTLTISSLQPDDFATYYCQQYDTYRTFGQGTKVEIK
B3: 14A10 (antibody, V domains shown)
VH: EVQMVESGGGLVQPGGSLRLSCAAPGFIFSSYNMNWVRQAPGKGLEWVSYISSSSSTTYYADSVKGRFTISRDNAKNSLYLQMNSLRDEDTAVYYCASLYSGYDYYYYYGMDVWGQGTTVTVSS
VL: DIVMTQTPLSSPVSLGQPASISCRSSQSLVHSDGNTYLSWLQQRPGQPPRVLIYKISKRFSGVPDRFSGSGAGTDFTLKISRVEAEDVGVYYCMQATQFPFTFGPGTKVDIK
B4: 13F04 (antibody, V domains shown)
VH: QVQLQQPGAELVKPGASVKLSCKASGYIFISYWMHWVKQRPGQGLEWIGEINPRNGRTNYNEKFKSKATLTVDKSSSTAYMQLTSLTSEDSAVYYCARGGDYGGSFDYWGQGTTLTVSS
VL: DIVLTQSPASLAVSLGQRATISCRASESVDSYGNSFMHWYQQKPGQPPKLLIYRASNLESGIPARFSGSGSRTDFTLTVNPVEADDVATYYCQQSNEDPWTFGGGTKLEIK
B5: Fab Construct 1 (chimeric 76H12 Fab, parental mouse 76H12 V-regions) (Fab, V domains shown)
VH: QVQLQQPGSDLVRPGTSVKLSCKASGYTFTSYWMHWVKQRPGQGLEWIGNVYPGSGSTKYDEKFKTKATLTVDTSSNTAYMELSSLTSEDSAVYYCTRPGNYEGFAYWGQGTLVTVSA
VL: B4 VL with D1N, N34S, R54L, I62V, V79I, N80D, V87A, S95N
notes: domain: CH1; also called Fab 1; chimeric Fab; not shown: constant region of human kappa light chain
B6: Fab Construct 2 (humanized 76H12 Fab) (Fab, V domains shown)
VH: QVQLVQSGAEVKKPGASVKVSCKASGYTFTSYWMHWVRQAPGQGLEWMGNVYPGSGSTKYAQKFQGRVTMTRDTSTSTVYMELSSLRSEDTAVYYCARPGNYEGFAYWGQGTLVTVSS
VL: NIQLTQSPSSLSASVGDRVTITCRASESVDSYGSSFMHWYQQKPGKPPKLLIYLASNLESGVPSRFSGSGSGTDFTLTISSLQPEDFATYYCQQNNEDPWTFGQGTKLEIK
notes: domain: CH1; also called Fab 2; h76H12_Hv0/h76H12_Lv3; not shown: constant region of human kappa light chain

Each binder was assayed against L1CAM endogenously expressed on MCF-7 and MDA-MB-231 cells (UniProt P32004) (assay: flow cytometry, MCF-7 cells).

Row | Binder | EC50
1 | B1 | 0.35 nM
2 | B2 | 4.8 nM
3 | B3 | 5.3 nM
4 | B4 | 1.2 nM

The binders below were run against L1CAM endogenously expressed on MCF-7 and MDA-MB-231 cells (UniProt P32004) (assay: flow cytometry, MDA-MB-231 cells).

Row | Binder | EC50
5 | B1 | 0.9 nM
6 | B2 | 6.7 nM
7 | B3 | 8.9 nM
8 | B4 | 1.7 nM

Each binder was assayed against human L1CAM overexpressed on HEK293T cells (human, UniProt P32004 20-1257) (assay: flow cytometry on HEK293T cells overexpressing L1CAM (panel HEK293T-L1CAM), GMFI ratio to 2nd only against log[Fab], nM).
From the text: A total of 11 humanized 76H12 Fab variants (Fabs 2-12) were generated in addition to a chimeric 76H12 Fab (Fab 1) containing the parental murine VH and VL sequences. The chimeric Fab served as the benchmark for comparative assessment of humanized Fab variants. […] All humanized variants bound to the L1CAM overexpressing cells, with most binding comparably to the chimeric 76H12 Fab. […] Here, recombinant L1CAM-Fc fusion protein was immobilized onto anti-Human IgG Fc Capture (AHC) biosensors and binding of Fabs was measured kinetically over a 3-200 nM concentration range. Kinetic data were fitted to a 1:1 binding model to compute association (kₒₙ) and dissociation (koff) rate constants, in addition to equilibrium dissociation constants (KD) as shown in Table 59. […] From these, Fab 3 represents the preferred humanized variant given higher identity to human germline IGHV1-46 and IGKV1-39 sequences resulting from fewer human-to-murine framework back mutations.

Sequence of human L1CAM overexpressed on HEK293T cells (P32004 20-1257): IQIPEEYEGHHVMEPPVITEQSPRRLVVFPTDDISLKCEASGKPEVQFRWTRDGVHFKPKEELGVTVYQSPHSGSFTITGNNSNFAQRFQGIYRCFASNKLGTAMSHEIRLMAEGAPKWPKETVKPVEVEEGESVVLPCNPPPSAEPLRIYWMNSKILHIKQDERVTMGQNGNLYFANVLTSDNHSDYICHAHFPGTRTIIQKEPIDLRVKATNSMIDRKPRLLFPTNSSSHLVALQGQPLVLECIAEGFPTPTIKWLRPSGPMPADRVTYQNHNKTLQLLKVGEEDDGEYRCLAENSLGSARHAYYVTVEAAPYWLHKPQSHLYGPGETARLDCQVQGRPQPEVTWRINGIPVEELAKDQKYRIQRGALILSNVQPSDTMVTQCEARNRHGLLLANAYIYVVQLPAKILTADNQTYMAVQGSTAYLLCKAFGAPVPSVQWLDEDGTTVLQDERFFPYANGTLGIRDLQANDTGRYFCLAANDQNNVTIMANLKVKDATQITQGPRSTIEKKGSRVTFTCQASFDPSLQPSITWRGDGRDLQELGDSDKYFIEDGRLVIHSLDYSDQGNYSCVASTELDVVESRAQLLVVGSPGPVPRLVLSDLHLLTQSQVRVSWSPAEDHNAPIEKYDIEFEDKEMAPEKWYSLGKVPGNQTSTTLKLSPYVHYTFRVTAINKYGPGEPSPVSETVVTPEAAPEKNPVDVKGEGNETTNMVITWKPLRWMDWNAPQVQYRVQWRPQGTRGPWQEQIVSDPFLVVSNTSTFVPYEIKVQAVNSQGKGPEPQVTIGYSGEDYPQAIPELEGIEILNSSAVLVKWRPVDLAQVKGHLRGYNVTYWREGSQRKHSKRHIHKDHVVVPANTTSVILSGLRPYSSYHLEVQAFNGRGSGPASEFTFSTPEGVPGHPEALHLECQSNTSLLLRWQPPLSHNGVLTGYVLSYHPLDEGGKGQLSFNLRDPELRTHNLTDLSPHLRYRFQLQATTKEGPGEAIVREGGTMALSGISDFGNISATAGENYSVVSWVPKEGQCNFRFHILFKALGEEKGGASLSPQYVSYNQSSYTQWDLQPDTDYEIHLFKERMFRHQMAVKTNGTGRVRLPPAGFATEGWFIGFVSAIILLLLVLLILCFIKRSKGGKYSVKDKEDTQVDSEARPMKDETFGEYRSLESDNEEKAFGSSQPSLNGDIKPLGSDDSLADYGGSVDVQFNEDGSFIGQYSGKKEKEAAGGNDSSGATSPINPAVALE

Row | Binder | EC50 (read off the curve)
9 | B5 | ~70 nM
10 | B6 | ~200 nM

— US20260131000A1 (Memorial Sloan Kettering, published 2026)
